Restriction of infection: ratio of infection titers on CHO cells stably expressing mamu-TRIMCypA over control CHO cells (infectivity ratio), restriction of infection: ratio of infection titers on CHO cells stably expressing mafa-TRIMCypA over control CHO cells (infectivity ratio) and restriction of infection: ratio of infected cells in CHO cells stably expressing owl-TRIMCypA over control CHO cells (infectivity ratio) data for three substances are collected here from PMC3751554.

Assay [1] concerns the target TRIMCypA from Macaca mulatta (Macaca mulatta).
Assay [2] concerns the target TRIMCypA from Macaca fascicularis (Macaca fascicularis).
In assay [3] the target is owl monkey TRIMCypA fusion protein (owl monkey (Aotus sp.)).

With HIV-2ROD capsid (CA) (natural protein), in assay [1], the restriction of infection: ratio of infection titers on CHO cells stably expressing mamu-TRIMCypA over control CHO cells (infectivity ratio) is less than 0.2. Turning to SIVgsn capsid (CA) (natural protein), the restriction of infection: ratio of infection titers on CHO cells stably expressing mafa-TRIMCypA over control CHO cells (infectivity ratio) in assay [2] was less than 0.4. SIVmnd1 capsid (CA) (natural protein): the restriction of infection: ratio of infected cells in CHO cells stably expressing owl-TRIMCypA over control CHO cells (infectivity ratio) in assay [3] is less than 0.4. Moreover, the restriction of infection: ratio of infection titers on CHO cells stably expressing mafa-TRIMCypA over control CHO cells (infectivity ratio) in assay [2] is less than 0.4.
